Values quoted from earlier work in paper PMC4101496.

Molecular target: Asp14 (UniProt position 14, FGAHADDVEIG)
Assay: kinetics
Conditions: WT enzyme under turnover; pH profiles of Zn2+-BshB and Co2+-BshB reported as identical

N-acetylglucosamine-malate deacetylase (BshB) (Bacillus anthracis (per Table 1 accession; the review says BshB from both B. anthracis and B. cereus (BC1534) has been characterised and does not state which gave the pH profile))
pKa: 8.5
